Results from publication PMC10457321, “Architecture of the Heme-translocating CcmABCD/E complex required for Cytochrome c maturation” (Nature Communications, 2023).
Numbering of substitutions follows the chain as printed. In names and notes the source's numbering stands.

Assays:
[1] = target: the molecule itself; test: cryo-EM structure; single-particle analysis of the co-expressed, co-purified E154Q^A variant complex in DDM, no ATP added, closed state; Ccm(E154QAB)2CD at 3.94 A
[2] = target: the molecule itself; test: cryo-EM structure; single-particle analysis of the co-expressed, co-purified E154Q^A variant complex in GDN with 2.5 mM ATP added, closed state; Ccm(E154QAB)2CD with ATP at 3.62 A
[3] = target: T1, Ccm(ABCD)2 heterooctameric heme translocation complex (Escherichia coli, UniProt P33931 1-207; P0ABL8 1-220; P0ABM1 1-245; P0ABM5 1-69); test: cryo-EM structure; single-particle analysis of the co-expressed, co-purified wild-type CcmABCDE sample in GDN, nucleotide-free, inward-open state; classes Ccm(ABCD)2 at 3.47 A and Ccm(ABCD)2E at 3.81 A; 20 mM Tris/HCl pH 7.5, 150 mM NaCl; details: both partners purified
T1 construct: CcmA of Escherichia coli, as m1; CcmB of Escherichia coli, as m2; CcmC of Escherichia coli, as m3; CcmD of Escherichia coli, as m4; Nucleotide-free, inward-open state; C2-symmetric heterooctamer; Used as the target of CcmE; also called CcmABCD complex; source: GDN; copies: 2 + 2 + 2 + 2
T1 sequence 1: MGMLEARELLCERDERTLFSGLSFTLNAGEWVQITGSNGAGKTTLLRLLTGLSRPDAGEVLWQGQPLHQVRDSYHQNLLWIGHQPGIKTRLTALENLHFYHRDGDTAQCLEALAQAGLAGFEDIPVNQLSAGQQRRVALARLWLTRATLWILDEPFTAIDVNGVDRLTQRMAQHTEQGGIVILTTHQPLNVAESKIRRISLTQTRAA
T1 sequence 2: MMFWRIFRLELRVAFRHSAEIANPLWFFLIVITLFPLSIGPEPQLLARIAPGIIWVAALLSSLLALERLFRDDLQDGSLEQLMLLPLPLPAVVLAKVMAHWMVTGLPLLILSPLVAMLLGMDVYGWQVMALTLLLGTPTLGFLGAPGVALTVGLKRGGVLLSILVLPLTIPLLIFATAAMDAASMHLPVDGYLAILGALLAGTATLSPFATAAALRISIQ
T1 sequence 3: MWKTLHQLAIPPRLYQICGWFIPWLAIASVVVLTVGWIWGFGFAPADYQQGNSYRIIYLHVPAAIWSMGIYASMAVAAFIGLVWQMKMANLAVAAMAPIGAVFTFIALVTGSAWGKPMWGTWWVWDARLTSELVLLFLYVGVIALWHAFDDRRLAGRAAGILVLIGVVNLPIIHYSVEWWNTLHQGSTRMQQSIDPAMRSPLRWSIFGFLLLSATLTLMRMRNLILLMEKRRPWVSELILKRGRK
T1 sequence 4: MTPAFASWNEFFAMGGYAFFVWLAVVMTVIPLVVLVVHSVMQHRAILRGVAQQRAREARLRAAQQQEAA

B1: CcmB, transmembrane subunit of the core ABC transporter CcmAB (natural protein, Escherichia coli)
chain: T1 sequence 2
notes: CcmB of Escherichia coli, integral membrane protein with six transmembrane helices, expressed from the ccm operon amplified from pEC86; Expressed from the cloned ccm operon; no truncation is described; source: DDM or GDN
stoichiometry N [1]: 2

B2: CcmA E154Q variant with N-terminal StrepTag(II) (natural protein, Escherichia coli)
chain: T1 sequence 1 with E154Q
notes: CcmA of Escherichia coli with the catalytic glutamate of the switch II region (Walker B motif) replaced; Same construct as m1 apart from E154Q; also called E154Q^A variant; ^E154QA; source: DDM or GDN
stoichiometry N [2]: 2

B3: CcmE, heme chaperone (natural protein, Escherichia coli)
chain: MNIRRKNRLWIACAVLAGLALTIGLVLYALRSNIDLFYTPGEILYGKRETQQMPEVGQRLRVGGMVMPGSVQRDPNSLKVTFTIYDAEGSVDVSYEGILPDLFREGQGVVVQGELEKGNHILAKEVLAKHDENYTPPEVEKAMEANHRRPASVYKDPAS
notes: CcmE of Escherichia coli, monotopic membrane protein with an N-terminal transmembrane helix (modelled N2 to S32) and a periplasmic beta-barrel domain from F37; the ccmE gene stood in the construct used to produce CcmABCD; also called chaperone CcmE; source: GDN
stoichiometry N [3]: 1
